# In article PMC8251712:
# Changes are numbered by the printed parent chain.
# B1: NCED freeprobe2988mu (mutant competitor) (dsDNA)
# DNA 1: ACGTAATCTTTGAACTTTTCGGGGGGAAACATTTCCACC
# DNA 2: GGTGGAAATGTTTCCCCCCGAAAAGTTCAAAGATTACGT
# B2: NCED probe2988 (SMRE) (dsDNA)
# DNA 1: ACGTAATCTTTGAACTTTTCACCAAATAAACATTTCCACC
# DNA 2: GGTGGAAATGTTTATTTGGTGAAAAGTTCAAAGATTACGT
# B3: NCED freeprobe2988 (WT competitor) (dsDNA)
# DNA 1: B2 DNA 1
# DNA 2: B2 DNA 2
# B4: SDR 396500 WT (dsDNA)
# DNA 1: CCGGATTGAGGGCCGGAGTAGCTGCAGGTGTGATCTCCCG
# DNA 2: CGGGAGATCACACCTGCAGCTACTCCGGCCCTCAATCCGG
# B5: ABA3 269200 WT (dsDNA)
# DNA 1: ACATCGTCGTTCATCACCAGCTAGCGAAGCAAACAAGGAG
# DNA 2: CTCCTTGTTTGCTTCGCTAGCTGGTGATGAACGACGATGT
# B6: ABA3 269200 mu (dsDNA)
# DNA 1: B5 DNA 1 with C18G, A19G, C21G, T22G, A23G
# DNA 2: B5 DNA 2 with T18C, A19C, G20C, T22C, G23C
# B7: AAO 343200 WT (dsDNA)
# DNA 1: CACGAAGATTTCCCAGCTATCATCAATAAGACCAGGTCGC
# DNA 2: GCGACCTGGTCTTATTGATGATAGCTGGGAAATCTTCGTG
# Legend:
# [1] = biological target: T1, Myb10-D (Pcold-Myb10-D fusion) (Triticum aestivum, UniProt C0SPG5 1-265); test: competition
# [2] = biological target: T1, Myb10-D (Pcold-Myb10-D fusion); test: EMSA
# [3] = biological target: T1, Myb10-D (Pcold-Myb10-D fusion); test: competition; remark: listed apart in the source
# [4] = biological target: T1, Myb10-D (Pcold-Myb10-D fusion); test: EMSA; remark: listed apart in the source
# [5] = biological target: T1, Myb10-D (Pcold-Myb10-D fusion); test: competition; remark: listed apart in the source
binder,measurement,setting,value
B1,binding result,[1],no binding
B2,binding result,[2],binds
B3,binding result,[3],binds
B4,binding result,[4],no binding
B5,binding result,[2],binds
B6,binding result,[5],no binding
B7,binding result,[4],no binding
